Activity (fold activation) data for one sequence are collected here from patent publication US20040171585.

In the data set the target is T1, HNF-4α (UniProt P41235).
T1 sequence: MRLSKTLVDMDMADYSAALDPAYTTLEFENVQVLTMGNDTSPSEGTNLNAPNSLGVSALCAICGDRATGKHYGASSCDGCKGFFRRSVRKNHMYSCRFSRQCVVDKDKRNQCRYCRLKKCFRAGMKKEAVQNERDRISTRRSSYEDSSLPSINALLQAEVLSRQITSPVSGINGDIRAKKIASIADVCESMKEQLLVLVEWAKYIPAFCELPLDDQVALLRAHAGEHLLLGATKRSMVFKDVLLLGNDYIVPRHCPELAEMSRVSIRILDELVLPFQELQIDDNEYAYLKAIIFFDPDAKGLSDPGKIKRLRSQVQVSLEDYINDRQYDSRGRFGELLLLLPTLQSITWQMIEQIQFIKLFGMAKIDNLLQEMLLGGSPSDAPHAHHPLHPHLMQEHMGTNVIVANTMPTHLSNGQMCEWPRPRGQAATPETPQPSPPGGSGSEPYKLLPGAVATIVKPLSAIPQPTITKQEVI
Briefly: cell_activity. The conditions noted are these: CAT reporter with TK promoter and one to three C3P copies, COS-7, no added fatty acids.

For the sequence “GCAGGTGACCTTTGCCCAGCGCC (double strand) [C3P element of apo CIII promoter (-87/-66)]”, the activity (fold activation) is 7.
